Measured values taken from patent US20250073202A1, “METHODS TO TREAT RENAL DISORDERS USING CALCIUM CHANNEL INHIBITORS” (The Trustees of Indiana University, priority 2018, published 2025).

B1: IL-17Rc: the IL17Rc receptor antagonist (R&D Systems), 150 ng/day i.p. (protein, UniProt Q8NAC3 21-538, looked up)
extracellular domain: LERLVGPQDATHCSPVSLEPWGDEERLRVQFLAQQSLSLAPVTAATARTALSGLSGADGRREERGRGKSWVCLSLGGSGNTEPQKKGLSCRLWDSDILCLPGDIVPAPGPVLAPTHLQTELVLRCQKETDCDLCLRVAVHLAVHGHWEEPEDEEKFGGAADSGVEEPRNASLQAQVVLSFQAYPTARCVLLEVQVPAALVQFGQSVGSVVYDCFEAALGSEVRIWSYTQPRYEKELNHTQQLPDCRGLEVWNSIPSCWALPWLNVSADGDNVHLVLNVSEEQHFGLSLYWNQVQGPPKPRWHKNLTGPQIITLNHTDLVPCLCIQVWPLEPDSVRTNICPFREDPRAHQNLWQAARLQLLTLQSWLLDAPCSLPAEAALCWRAPGGDPCQPLVPPLSWENVTVDKVLEFPLLKGHPNLCVQVNSSEKLQLQECLWADSLGPLKDDVLLLETRGPQDNRSLCALEPSGCTSLPSKASTRAARLGEYLLQDLQSGQCLQLWDDDLGALWACPMDKYIHKR
modifications: extracellular domain

Legend:
[1] = tested on: AKI-primed CD4+ cells; assay: In vitro stimulation of AKI-primed kidney CD4+ cells with Ang II and elevated Na+, IL17 response; type: cell-based, rat; conditions: inhibitor 10 μM; Ang II 10^-7 M and 170 mM Na+; 12-14 hours; cells 7 days post I/R
Protocol: Total RNA was obtained from kidney using Trizol and the Zymogen RNA extraction kit and cDNA was prepared using MMLV enzyme (Invitrogen, Carlsburg, CA). Quantitative real time PCR (qPCR) using gene specific primers was performed using ABI 7500 (Applied Biosystems, Foster City, CA). mRNA values were calculated using 2^−ΔΔCt. Specific primers sequences for IL-6 (catalog #Rn01410330_m1), Kim-1 (#Rn00597703_m1) and IL17 (Rn01757168_m1) were purchased from ThermoFisher (Waltham, MA).
(§1) To evaluate protein expression of IL17 or Orai1, Orai2 or Orai3, cells were restimulated with PMA and ionomycin for 6 hours in the presence of monensin (Golgistop, 1 μg·ml, BD Biosciences) permeabilized with saponin ([…]) and stained with relevant antibody. Cells were scanned using flow cytometry (FACSCalibur, BD Biosciences, San Jose, CA) and scans were analyzed using Flowjo software (Tree Star, Ashland, OR).
CD4+T cells were isolated using the MACS Pan-T cell microbead separation kit (Miltenyl, Glabach, Germany). T cells were stimulated with plate bound anti-CD3 (precoated with 2 μg/mL) and soluble anti-CD28 (1 μg/mL). Cells (2.5×10^5 in 0.25 ml) were incubated 12-14 hours at 37° C. in RPMI medium supplemented with 10% FBS (Invitrogen) in a 48-well plate. Cells were challenged with Ang II (Sigma, 10^−7M) and raising the extracellular Na+ from 140 mM to 170 mM, using a 1 M NaCl solution. Calcium channel inhibitors 2ABP (10 μM, Sigma) AnCoA4 (10 μM, Millipore, Burlington, MA) and YM58483/BTP2 (10 μM) were included to evaluate effects on IL-17.

[2] = tested on: human blood CD4+ cells; assay: In vitro stimulation of human blood CD4+ cells from AKI patients with elevated sodium, IL17 response; type: cell-based; conditions: 170 mM Na+, overnight (~12 hours)
Protocol: For in vitro stimulation of human blood cells, primary T cells were isolated from fresh blood using Straight whole blood CD4 kit from Miltneyli Biotech (Miltenyli, San Diego, CA) according to manufactures' protocol. CD4+T cells were plated at a density of 1×10^6 cells/mL in RPMI medium supplemented with FBS. Cells were stimulated with human anti-CD3/CD28 dynabeads (Gibco; Catalogue no 11161D) along with labeled treatment overnight (˜12 hours). T cells were harvested and incubated with monensin for 6 hours, prior to staining for IL-17 (Table 4).

[3] = tested on: AKI-primed CD4+ cells; assay: Fura-2 imaging of intracellular Ca2+ responses in AKI-primed CD4+ cells; type: cell-based, rat; conditions: superfusate with Ang II and elevated Na+; to levels similar to sham
Protocol: To assess Ca^2+ responses, fura2 imaging was performed. Briefly, isolated CD4+ T cells were loaded with fura-2AM (2.5 μM, Sigma, St. Louis, MO) for 45 min, washed, placed on poly-lysine (Sigma) coated coverslips and placed in a superfusion chamber with physiological salt solution (PSS) containing 2 mM Ca^2+. The chamber was mounted on an inverted epifluorescence microscope and signal measured with alternating excitation at 340 and 380 nm and emission at 510 nm using the InCa^2+-imaging system (Intracellular Imaging Systems, Cincinnati, OH). Data were acquired at 1.5 Hz and representative tracings were smoothed to the 10 nearest neighbor points using GraphPad Prism. For analysis, an increase in signal intensity of >1 standard deviation from baseline was considered a positive response. Frequency of responding cells was determined from an average 53±19 cells for each animal.

[4] = tested on: renal ischemia reperfusion injury; assay: Bilateral renal ischemia/reperfusion (I/R) injury in rats, 24 hours after reperfusion (Study II); type: in vivo, rat
Protocol: All studies used male Sprague-Dawley rats (250-300 g) that were purchased from Envigo (Indianapolis, IN). Rats were anesthetized with a cocktail of ketamine (100 mg·kg^−1, KetoVed, Vedco Inc, St. Joseph, MO) and xylazine (50 mg·kg^−1, AnaSed, Lloyd Inc, Shenandoah IA). Rats were placed on a heated surgical table to maintain body temperature. A midline incision and either unilateral (left) or bilateral renal ischemia (as indicated in Results) was induced by applying micro-aneurism clamps on the renal pedicles for a period of 40 min. Re-establishment of perfusion was verified by visual examination following removal of the clamps. Rats were provided post-operative analgesia using buprenorphine-SR (1 mg·kg^−1).
Rats were allowed to recover for various periods of time as described in the Results. In Study I, lymphocytes were studied in vitro after recovery for either 2 or 7 days following I/R or sham surgery for evaluation of function in vitro or for FACS analysis. In Study II, the effect of SOCE on kidney injury was studied with the inhibitor YM58483/BPT2 (N-[4-[3,5-Bis(trifluoromethyl)-1H-pyrazol-1-yl]phenyl]-4-methyl-1,2,3-thiadiazole-5-carboxamide; Tocris/Bio-Techne Minneapolis, MN). Rats were pretreated p.o. 2-3 hours prior to surgery with YM58483.BPT2 (1 mg·kg^−1) in sugar-free chocolate pudding following dilution in 100% EtOH, at, a dose previously shown to affect T cell activation in rats. In some experiments, rats were also treated with the IL17Rc (150 ng/day i.p; R&D Systems). In addition, one experiment utilized a model of rhabdomyolysis, induced by injection of 50% glycerol (10 ml/kg) into the hindlimb muscle of rats following 16 hours of water restriction.
To measure creatinine, tail blood was collected in heparin containing tubes and centrifuged to collect plasma. Plasma creatinine was measured using a Pointe Scientific Analyzer and Creatinine Assay reagents using methods outlined by the manufacturer (Pointe Scientific, Canton MI). Urine was collected for 24 hours by placing rats in metabolic cages and urine volume was determined gravimetrically. Urine creatinine was measured using a colorimetric assay adopted for microplate readers. Creatinine clearance was measured using UCr*V/PCr. […]
Freshly harvested kidneys were minced and digested in liberase (2 μg/ml. Roche, Indianapolis IN) for 15 min at 37° C. using Gentle MACs (Miltenyli, San Diego, CA). The digested tissue was filtered through a 100-μm mesh and washed with RPMI containing 10% fetal bovine serum (Invitrogen). Mononuclear cells were isolated using Percol (Sigma) density gradient centrifugation.
as §1
The effect of SOCE on early ischemic kidney injury was studied with the inhibitor YM58483/BPT2 (N-[4-[3,5-Bis(trifluoromethyl)-1 H-pyrazol-1-yl]phenyl]-4-methyl-1,2,3-thiadiazole-5-carboxamide; Tocris/Bio-Techne Minneapolis, MN). Rats were pretreated 2-3 hours prior to surgery, p.o. in sugar-free chocolate pudding following dilution in 100% EtOH, at 1 mg·kg^−1, a dose previously shown affect T cell activation in rats. To evaluate if SOCE influences Th17 cells in AKI, rats were fed YM58483/BPT2 approximately 2 hours prior to […] and reperfusion. […] YM58483/2BPT2 also attenuated the infiltration of total CD4+ and CD8+ T-cells, B-cells, and dendritic cells following I/R (FIGS. 3C, 3D, 3E, and 3F).

[5] = 24 hours following ischemia reperfusion, mean ± S.E.

| Molecule | increase in IL17+ cells (IL17 protein, FACS) [1] | increase of IL17 mRNA [1] | IL17 response to elevated extracellular sodium [2] | percentage of Ca2+-responding cells [3] | infiltration of total CD4+ T-cells in kidney (vs vehicle) ([4]; 24 hours following I/R) | kidney CD4+/IL17+ cells (vs vehicle) ([4]; 24 hours following I/R) | CD4+ renal lymphocyte content [4, 5] [cells/gram] | CD4+/IL-17+ cells [4, 5] [cells/gram] | CD8+ cells renal lymphocyte content [4, 5] [cells/gram] | CD8+IL-17+ cells [4, 5] [cells/gram] | Serum Creatinine [4, 5] [mg/dL] | Total IL-17+ cells [4, 5] [cells/gram] |
| --- | --- | --- | --- | --- | --- | --- | --- | --- | --- | --- | --- | --- |
| NCCOB(c1ccccc1)c1ccccc1 [2-ABP, 2-aminoethoxydiphenyl borate] | completely blocked | completely blocked | – | – | – | – | – | – | – | – | – | – |
| COc1cc2c(cc1-c1coc3c4c(ccc3c1=O)OC(C)(C)C=C4)OCO2 [AnCoA4] | completely blocked | completely blocked | inhibited | significantly attenuated | – | – | – | – | – | – | – | – |
| B1 | – | – | – | – | significantly reduced | significantly reduced | 19229 ± 3175 | 1567 ± 294 | 4356 ± 559 | 251 ± 118 | 3.96 ± 1.2 | 8447 ± 1753 |
